In ChEMBL document CHEMBL2074186:

Substrate: Nc1ccc(C(=O)NCC(=O)O)cc1
Test: cells, lysate or membranes named

B1: Solute carrier family 22 member 6 (Rattus norvegicus) (protein)
chain: MAFNDLLKQVGGVGRFQLIQVTMVVAPLLLMASHNTLQNFTAAIPPHHCRPPANANLSKDGGLEAWLPLDKQGQPESCLRFTSPQWGPPFYNGTEANGTRVTEPCIDGWVYDNSTFPSTIVTEWNLVCSHRAFRQLAQSLYMVGVLLGAMVFGYLADRLGRRKVLILNYLQTAVSGTCAAYAPNYTVYCVFRLLSGMSLASIAINCMTLNVEWMPIHTRAYVGTLIGYVYSLGQFLLAGIAYAVPHWRHLQLVVSVPFFIAFIYSWFFIESARWYSSSGRLDLTLRALQRVARINGKQEEGAKLSIEVLRTSLQKELTLSKGQASAMELLRCPTLRHLFLCLSMLWFATSFAYYGLVMDLQGFGVSMYLIQVIFGAVDLPAKFVCFLVINSMGRRPAQMASLLLAGICILVNGIIPKSHTIIRTSLAVLGKGCLASSFNCIFLYTGELYPTVIRQTGLGMGSTMARVGSIVSPLVSMTAEFYPSMPLFIFGAVPVVASAVTALLPETLGQPLPDTVQDLKSRSRGKQNQQQQEQQKQMMPLQASTQEKNGL
  Km: 43.2 µM
